In data set [1] the target is 4ZEV (designed four zinc finger - estrogen receptor - VP16 activator) (synthetic construct). Briefly: cell_activity; yeast reporter, modified GAL1 promoter, 15 min after beta-estradiol. As to conditions: tags: 4Z DBD replaces Gal4 DBD of GEV.
Data set [2] concerns the target ZEV (Zif268 zinc fingers - estrogen receptor - VP16 activator) (synthetic construct, UniProt P18146 SEQ:1-87). The description is as above.

Where only a bound is given, the exact number is not on record here.

B1: 4Z in vivo target (three pairs of sites) (dsDNA)
DNA 1: GCGGCGGAGGAGTGCGGCGGAGGAGGAGCGGCGGAGGAGTGCGGCGGAGGAGGAGCGGCGGAGGAGTGCGGCGGAGGAG
DNA 2: CTCCTCCGCCGCACTCCTCCGCCGCTCCTCCTCCGCCGCACTCCTCCGCCGCTCCTCCTCCGCCGCACTCCTCCGCCGC
Turning to B1, the activity in data set [1] is > 50 fold induction of GFP transcripts.

B2: Zif in vivo target (three pairs of sites) (dsDNA)
DNA 1: GCGTGGGCGTGCGTGGGCGGGCGTGGGCGTGCGTGGGCGGGCGTGGGCGTGCGTGGGCG
DNA 2: CGCCCACGCACGCCCACGCCCGCCCACGCACGCCCACGCCCGCCCACGCACGCCCACGC
Consider B2, for which the activity in data set [2] was > 50 fold induction of GFP transcripts.

The values are drawn from patent US20140128287, “SYSTEMS FOR INDUCTION OF GENE EXPRESSION AND PROTEIN DEPLETION IN YEAST” (THE TRUSTEES OF PRINCETON UNIVERSITY, published 2014).
